Experimental findings from article doi:10.1101/2023.06.13.544830 are described below.

For this data set, the target named is T1, OC2 (CUT-HOX) (human, UniProt O95948 330-485).
T1 sequence: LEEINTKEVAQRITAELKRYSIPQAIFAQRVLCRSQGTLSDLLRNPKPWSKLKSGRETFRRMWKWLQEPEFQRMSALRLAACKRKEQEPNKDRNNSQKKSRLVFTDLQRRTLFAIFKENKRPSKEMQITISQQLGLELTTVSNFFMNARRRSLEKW
Kind of data set: BLI. Background: Biolayer interferometry detects binding as a change in optical thickness at a sensor tip.

B1: PEG10 promoter duplex, biotinylated (dsDNA)
DNA 1: AGATCGATTTGC
DNA 2: GCAAATCGATCT
modifications: 5'-biotin on one strand
On to B1, for which the binding result is given as “binds”.
